According to US20180258165A1 (CELL MEDICA SWITZERLAND, published 2018):
Changes are numbered by the printed parent chain.

B1: DLX2295 (scFv)
scFv: DIQMTQSPSTLSASVGDRVTITCRASQDISNYLSWYQQKPGKAPKLLIYYTSKLHSGVPSRFSGSGSGAEFTLTISSLQPEDFATYFCLQGKMLPWTFGQGTKLEIKRGGGGSGGGGSGGGGSGGGGSEVQLVESGGGSVQPGGSLRLSCAFSGFSLSTSGMGVGWIRQAPGKGLEWVSHIWWDGDESYNPSLKGRFTISKDTSRNTVYLQMNSLRAEDTASYFCARNRYDPPWFVDWGQGTTVTVSS
notes: also called anti-IL-1 beta scFv DLX2295
B2: DLX2296 (scFv)
scFv: B1 scFv with S139L, S222V, T243L
B3: DLX2260 (scFv)
scFv: EIVMTQSPSTLSASVGDRVIITCRASQDISNYLSWYQQKPGKAPKLLIYYTSKLHSGVPSRFSGSGSGAEFTLTISSLQPDDFATYYCLQGKMLPWTFGQGTKLTVLGGGGGSGGGGSGGGGSGGGGSEVQLVESGGGLVQPGGSLRLSCTASGFSLSTSGMGVGWVRQAPGKGLEWVGHIWWDGDESYNPSLKSRFTISRDTSKNTVYLQMNSLRAEDTAVYYCARNRYDPPWFVDWGQGTLVTVSS
B4: DLX2332 (scFv)
scFv: B3 scFv with D81E, Y87F, L139S, T151A, V222S, Y224F, L243T
notes: also called anti-IL-1 beta scFv DLX2332

What was measured:
cynomolgus IL-1 beta = target: T1, cynomolgus IL-1 beta (cynomolgus, UniProt P79182 117-268); assay: ELISA, IL-1 beta coated at 2 mcg/ml, DLX2295 at 0.1, 0.3 and 1.0 mcg/ml, Protein L-HRP
T1 construct: Bought recombinant protein; also called cymonolgus IL-1 beta
T1 sequence (looked up): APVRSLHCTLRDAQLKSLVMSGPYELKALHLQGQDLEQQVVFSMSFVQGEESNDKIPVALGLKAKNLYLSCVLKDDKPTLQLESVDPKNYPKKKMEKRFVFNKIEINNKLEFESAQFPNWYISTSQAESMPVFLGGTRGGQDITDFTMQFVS
Protocol: (§1) Binding to the recombinantly expressed IL-1 beta proteins of the following species was investigated: cynomolgus (Sino Biological Inc., USA, cat. no. 90010-CNAE), rhesus macaque (R&D Systems, USA, cat. no. 1318-RL/CF) and mouse IL-1 beta (BioLegend, cat. no. 575102). […] Briefly, proteins were coated at a concentration of 2 mcg/ml over night at 4° C. on Maxisorp 96-well microplates in PBS pH 7.2. […] The ELISAs were developed with BM Blue POD substrate (Roche Applied Science) and the absorbance was measured at 450 nm.

rhesus macaque IL-1 beta = target: T2, rhesus macaque IL-1 beta (rhesus macaque, UniProt P48090 117-269); assay: as above
T2 construct: Bought recombinant protein
T2 sequence (looked up): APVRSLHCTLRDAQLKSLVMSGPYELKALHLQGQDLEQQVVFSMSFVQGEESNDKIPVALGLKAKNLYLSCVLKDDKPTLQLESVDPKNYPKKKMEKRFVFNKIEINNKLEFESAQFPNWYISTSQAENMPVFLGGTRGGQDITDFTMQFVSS
Protocol: as §1

mouse IL-1 beta = target: T3, mouse IL-1 beta (mouse, UniProt P10749 118-269); assay: as above
T3 construct: Bought recombinant protein
T3 sequence (looked up): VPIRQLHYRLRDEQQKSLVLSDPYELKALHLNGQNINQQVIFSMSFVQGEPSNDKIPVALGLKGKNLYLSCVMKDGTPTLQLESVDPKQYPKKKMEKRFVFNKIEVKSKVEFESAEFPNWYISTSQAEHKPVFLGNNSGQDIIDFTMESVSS
Protocol: as §1

[1] = target: T4, recombinant human IL-1 beta (human, UniProt P01584 117-269, biotinylated in the ELISA of Example 2 (R&D systems, cat. no. NFLB0), sites not stated; unlabelled elsewhere); assay: cell-based or functional assay
[2] = target: T4, recombinant human IL-1 beta; assay: ELISA, rhIL-1 beta coated, scFv 10 to 3'000 ng/ml, Protein L-HRP
Protocol: A scFv of irrelevant specificity was used as a control. rhIL-1 beta (Peprotech, cat. no. 200-01B) was coated to NUNC 96-well Maxisorp immunoplates. After blocking scFvs were titrated from 10 to 3′000 ng/ml. Bound scFvs were detected by Protein L-HRP (Sigma-Aldrich, cat. no. P3226), and the ELISA was developed using BM Blue POD substrate (Roche Applied Science, cat. no. 11484281001). For quantification purposes, the absorption was measured at 450 nm using VersaMax microplate reader (Molecular Devices).

binding result (cynomolgus IL-1 beta)	binding result (rhesus macaque IL-1 beta)	binding result (mouse IL-1 beta)	IC50 of IL-1 beta-induced IL-6 release from human dermal fibroblasts [1] [pM]	binding result [2]	Binder
binds	binds	binds	2 to 5	–	B1
–	–	–	~8	–	B2
–	–	–	~100	–	B3
–	–	–	–	binds	B4
